Patent publication US20140186823, “MUTANT PORES” (OXFORD NANOPORE TECHNOLOGIES LIMITED, published 2014)

Experiments:
Details in all cases: chain copies: 8 (stated)
MS-(B1-L88N)8 = MS-(B1-L88N)8 (Mycobacterium smegmatis, UniProt A0QR29 SEQ:1-184, L88N); test: mean S.D. of current levels (B1 baseline 3.26)
Method: (§1) This pre-incubation mix was added to 900 μL of buffer in the cis compartment of the electrophysiology chamber to initiate capture of the polymerase-DNA complexes in the MspA nanopore (to give final concentrations of DNA=0.5 nM, Enzyme=0.1 μM). Experiments were carried out at a constant potential of +180 mV. Current levels observed when the DNA is in the enzyme bound state were indexed and the current level, its duration and variance were recorded.

MS-(B1-L88Q)8 = MS-(B1-L88Q)8 (Mycobacterium smegmatis, UniProt A0QR29 SEQ:1-184, L88Q); test: mean S.D. of current levels (B1 baseline 3.26)
Method: as §1

MS-(B1-L88S)8 = MS-(B1-L88S)8 (Mycobacterium smegmatis, UniProt A0QR29 SEQ:1-184, L88S); test: mean S.D. of current levels (B1 baseline 3.26)
Method: as §1

MS-(B1-N86T)8 = MS-(B1-N86T)8 (Mycobacterium smegmatis, UniProt A0QR29 SEQ:1-184, N86T); test: current range; Phi29 unzipping, +180 mV
Method: (§2) The runs were conducted at room temperature at an applied potential of +180 mV. Current levels observed when the DNA is in the enzyme bound state were indexed and the current level, its duration and variance were recorded.
as §1

MS-(B1-I105Y)8 = MS-(B1-I105Y)8 (Mycobacterium smegmatis, UniProt A0QR29 SEQ:1-184, I105Y); test: current range; Phi29 unzipping, +180 mV
Method: as §2, §1

MS-(B1-I105L)8 = MS-(B1-I105L)8 (Mycobacterium smegmatis, UniProt A0QR29 SEQ:1-184, I105L); test: current range; Phi29 unzipping, +180 mV
Method: as §2, §1

MS-(B1-D90Q)8 = MS-(B1-D90Q)8 (Mycobacterium smegmatis, UniProt A0QR29 SEQ:1-184, N90Q); test: current range; Phi29 unzipping, +180 mV
Method: as §2, §1

MS-(B1-I89Y-D90S)8 = MS-(B1-I89Y-D90S)8 (Mycobacterium smegmatis, UniProt A0QR29 SEQ:1-184, I89Y,N90S); test: current range; Phi29 unzipping, +180 mV
Method: as §2, §1

MS-(B1-S103G)8 = MS-(B1-S103G)8 (Mycobacterium smegmatis, UniProt A0QR29 SEQ:1-184, S103G); test: current range; Phi29 unzipping, +180 mV
Method: as §2, §1

B1: FIG. 12 DNA substrate (dsDNA)
DNA 1: TTTTTTTTTTTTTTTTTTTTTCCCCCCCCCCCCCCTATTCTGTTTATGTTTCTTGTTTGTTAGCCCCCTTTGATAAGACAAATACAAAGAACAAACAATCGGCCCTTTAGTGGAGCGAGTGCGAGAGGCGAGCGGTCAA
DNA 2: GTATCTCCATCGCTGTTGACCGCTCGCCTCTCGCACTCGCTCCACTAAAGGGCCGATTGTTTGTTCTTTGTATTTGTCTTATCAAAGGGGGCTAACAAACAAGAAACATAAACAGAATAG
DNA 3: CAGCGATGGAGATAC
modifications: iSp9 and 3' Cholesteryl-TEG on SEQ 23
Question: What does the source list for B1?
Answer: activity (MS-(B1-L88N)8): 3.22; activity (MS-(B1-L88Q)8): 3.3; activity (MS-(B1-L88S)8): 3.12; activity (MS-(B1-N86T)8): 58 pA; activity (MS-(B1-I105Y)8): 45 pA; activity (MS-(B1-I105L)8): 42 pA; activity (MS-(B1-D90Q)8): 70 pA; activity (MS-(B1-I89Y-D90S)8): 67 pA; activity (MS-(B1-S103G)8): 54 pA
